Source: US20070224189A1

What follows are substances tested against extracellular region of human V158 FcγRIIIa fused with glutathione S-Transferase (GST) (human) (UniProt P08637) (assay: AlphaScreen competition).
Sequence of extracellular region of human V158 FcγRIIIa fused with glutathione S-Transferase (GST) (human) (P08637 17-208 F176V): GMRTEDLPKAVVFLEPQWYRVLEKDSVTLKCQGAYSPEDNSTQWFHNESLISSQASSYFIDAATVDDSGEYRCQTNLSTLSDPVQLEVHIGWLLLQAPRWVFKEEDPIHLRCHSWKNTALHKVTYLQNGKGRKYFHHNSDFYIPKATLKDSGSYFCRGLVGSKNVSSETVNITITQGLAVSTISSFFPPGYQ

FcγRIIIa Fold	Substance
0.05 fold vs WT	A327L alemtuzumab (antibody)
0.05 fold vs WT	F241E/F243Y/V262T/V264R alemtuzumab (antibody)
0.06 fold vs WT	F241L/V262I alemtuzumab (antibody)
0.02 fold vs WT	F241R/F243Q/V262T/V264R alemtuzumab (antibody)
0.04 fold vs WT	Y296N/N297D/I332E alemtuzumab (antibody)

Further lines, the substance ahead of its results:

Substance	FcγRIIIa Fold
F241E/F243Q/V262T/V264E alemtuzumab (antibody)	0.07 fold vs WT
F241E/F243R/V262E/V264R alemtuzumab (antibody)	0.05 fold vs WT
F241W/F243W alemtuzumab (antibody)	0.07 fold vs WT
L234I/L235D trastuzumab (antibody)	0.07 fold vs WT
S239D/D265H/N297D/I332E alemtuzumab (antibody)	0.04 fold vs WT
S239D/D265V/N297D/I332E alemtuzumab (antibody)	0.03 fold vs WT
S239E/D265Q alemtuzumab (antibody)	0.05 fold vs WT
S239E/N297D/I332E alemtuzumab (antibody)	0.06 fold vs WT
S267Q/A327S alemtuzumab (antibody)	0.03 fold vs WT
T299A alemtuzumab (antibody)	0.03 fold vs WT
V264E/N297D/I332E alemtuzumab (antibody)	0.05 fold vs WT
